T1: VEGF-165 (VEGF-A) (Homo sapiens)
T1 chain: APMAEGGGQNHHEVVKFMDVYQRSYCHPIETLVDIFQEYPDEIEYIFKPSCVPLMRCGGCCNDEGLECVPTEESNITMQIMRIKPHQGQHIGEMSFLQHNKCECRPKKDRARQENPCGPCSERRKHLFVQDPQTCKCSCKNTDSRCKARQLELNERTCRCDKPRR


How the values were obtained:
[1] = biological target: Angiopoietin-2 (Ang2) (Homo sapiens, UniProt O15123 O15123:19-496); test: flow; details: tags: His tag; R&D Systems 623-AN
[2] = biological target: T1, VEGF-165 (VEGF-A); test: flow; details: tags: recombinant; chain copies: 2
[3] = biological target: T1, VEGF-165 (VEGF-A); test: flow; PBSMCT, 37 C; details: tags: recombinant; chain copies: 2; label: biotin
[4] = biological target: VEGF-121 (VEGF-A) (Homo sapiens, UniProt P15692 SEQ:1-121); test: flow; PBSMCT, 37 C; details: tags: recombinant; chain copies: 2; label: biotin

Angiopoietin-2 (Ang2), sequence (O15123 19-496, one chain of several): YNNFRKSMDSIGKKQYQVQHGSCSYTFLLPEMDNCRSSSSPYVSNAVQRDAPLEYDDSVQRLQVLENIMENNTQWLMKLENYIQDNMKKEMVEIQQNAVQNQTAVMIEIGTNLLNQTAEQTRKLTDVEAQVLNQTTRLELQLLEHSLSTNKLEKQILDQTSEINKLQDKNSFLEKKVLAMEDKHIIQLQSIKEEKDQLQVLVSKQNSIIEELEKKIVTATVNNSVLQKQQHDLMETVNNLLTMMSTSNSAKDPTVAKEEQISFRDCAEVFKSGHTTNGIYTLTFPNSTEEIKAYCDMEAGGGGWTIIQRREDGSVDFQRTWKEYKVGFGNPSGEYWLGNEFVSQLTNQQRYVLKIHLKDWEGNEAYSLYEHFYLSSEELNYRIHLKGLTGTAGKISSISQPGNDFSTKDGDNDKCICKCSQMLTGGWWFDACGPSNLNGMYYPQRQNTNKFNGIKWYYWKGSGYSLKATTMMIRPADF

Binder	Kd [1] [nM]	Kd [2] [nM]	Kd [3] [nM]	Kd [4] [nM]
AMSB107.6 (ssRNA, 2'-F all nucleotides) RNA: UGCAUGCAACCAGUGAGUCGGAUCUCCGCAUAGAUAAGCCAACAAACGUACAUUCUCUGUUAGUAUUUUCUGCG	0.074	2.34	–	–
CGUAGCAUUUUGCCAGUGAGUCGGAUCUCCGCAUAUCUGCG (ssRNA, 2'-F all nucleotides) [AMS0433.8]	–	–	8.2	11
CUGUACAGUUUUACCAGUGAGUCGGAUCUCCGCAUAUCUGCG (ssRNA, 2'-F all nucleotides) [AMS0433.19]	–	–	0.097	0.162
AMS0433.1 (ssRNA, 2'-F all nucleotides) RNA: ACCCUUGCUUGCGUAGCAUUUUACCAGUGAGUCGGAUCUCCGCAUAUCUGCG	–	–	0.666	1.12
AMS0433.4 (ssRNA, 2'-F all nucleotides) RNA: ACCCUUGCUUGCGCAGCAUUCUGCCAGUGAGUCGGAUCUCCGCAUAUCUGCG	–	–	0.76	1.09
AMS0433.3 (ssRNA, 2'-F all nucleotides) RNA: ACCCUUGCUUGCGUAGCAUUCUGCCAGUGAGUCGGAUCUCCGCAUAUCUGCG	–	–	0.837	0.921
CACAGAGAACUGUGUGCCAGUGAGUCGGAUCUCCGCAUAUCUGCG (ssRNA, 2'-F all nucleotides) [AMS0433.7]	–	–	9.76	13.8
AMSB107.1 (ssRNA, 2'-F all nucleotides) RNA: UGCCAGUGAGUCGGAUCUCCGCAUAGAUAAGCCAACAAACGUACAUUCUCUGUUAGUAUUUUCUGCG	0.885	13.9	–	–
AMSB107.11 (ssRNA, 2'-F all nucleotides) RNA: UGCAUGCAUUUUCCAGUGAGUCGGAUCUCCGCAUAGAUAAGCCAACAAACGUACAUUCUCUGUUAGUAUUUUCUGCG	0.095	0.057	–	–
GCUGUACAGCUUUUACCAGUGAGUCGGAUCUCCGCAUAUCUGCG (ssRNA, 2'-F all nucleotides) [AMS0433.21]	–	–	0.131	0.15
AMSB107.8 (ssRNA, 2'-F all nucleotides) RNA: UUUUGCAUGCAUUUUACCAGUGAGUCGGAUCUCCGCAUAGAUAAGCCAACAAACGUACAUUCUCUGUUAGUAUUUUCUGCG	0.095	0.048	–	–
ACCCUUGCUUGCGUAGCAUUUUACCAGUGAGUCGGAUCUCUGCAUGCA (ssRNA, 2'-F all nucleotides) [AMS0433.15]	–	–	7.34	9
AMSB107.16 (ssRNA, 2'-F all nucleotides) RNA: UGCAUGCAUUUUACCAGUGAGUCGGAUCUCUUUCGCAUAGAUAAGCCAACAAACGUACAUUCUCUGUUAGUAUUUUCUGCG	0.08	–	–	–
UGCCAGUGAGUCGGAUCUCCGCAUAUCUGCGCGCAUAUCUGCG (ssRNA, 2'-F all nucleotides) [AMS0433.2]	–	–	8.42	11.4
AMS0433.11 (ssRNA, 2'-F all nucleotides) RNA: CACAGAGAACUGUGCCUAGCAUUUUGCCAGUGAGUCGGAUCUCCGCAUAUCUGCG	–	–	16.4	23.2
AMS0433.13 (ssRNA, 2'-F all nucleotides) RNA: UUUUGUGCUUGCGUAGCAACCCUCCAGUGAGUCGGAUCUCCGCAUAUCUGCG	–	–	8.3	9.47
UGCAUCUGCAUUUUACCAGUGAGUCGGAUCUCCGCAUAUCUGCG (ssRNA, 2'-F all nucleotides) [AMS0433.18]	–	–	3.81	5.73
UGCACUGCAUUUUACCAGUGAGUCGGAUCUCCGCAUAUCUGCG (ssRNA, 2'-F all nucleotides) [AMS0433.17]	–	–	0.359	0.475
CCCCAUCUGCGAAGCAGUCAGCCAGUGAGUCGGAUCUCCGCAUAUCUGCG (ssRNA, 2'-F all nucleotides) [AMS0433.6]	–	–	0.674	0.898
UUUUACCAGUGAGUCGGAUCUCUGCAUGCA (ssRNA, 2'-F all nucleotides) [AMS0433.16]	–	–	6.65	10.4

From patent publication US20230095004 (Aptitude Medical Systems, Inc., published 2023)
